First the molecules themselves.
B1: HDV Ribozyme (parent)
chain: GGCCGGCAUGGUCCCAGCCUCCUCGCUGGCGCCGGCUGGGCAACAUUCCGAGGGGACCGUCCCCUCGGUAAUGGCGAAUGGGACCCA

Here are results for 32 variants from the RNAGym collection of RNA variant scans (doi:10.7554/elife.80360).

This data set covers variants of B1. Kind of data set: self-cleavage, relative activity (ratio to wild type); higher = more cleavage; co-transcriptional.
As to GGCCGGCAUGGUCCCAGCCUCCUCGCUGGCGCCGGCUGGGCAACAUUUCGAGGGGACCGUCCCCUCGGUAAUGCCGAAUGGGACCCA, the self-cleavage is 0.253.
In the case of GGCCGGCAUGGUCCCAGCCUCCUCGCUGGCGCCGGCUGGGCAACAUUCCGAAUGGACCGUCCCCUCGGUAAUGGCGAAUGGGACCCA it was 0.773.
As for GGCCGGCAUGGACCUAGCCUCCUCGCUGGCGCCGGCUGGGCAACAUUCCGAGGGGACCGUCCCCUCGGUAAUGGCGAAUGGGACCCA, the figure is 0.138; as for GGCCGGCAUGGUCCCAGCAUCCUCGCUGGCGCCGGCUGGGCAACAUUCCGAGGGGACCUUCCCCUCGGUAAUGGCGAAUGGGACCCA, 0.134.
For GGCCGGUAUGGUCCCAGCCUCCUCGCUGGCGCCGGCUGGGCAACAUUCCGAGGGCACCGUCCCCUCGGUAAUGGCGAAUGGGACCCA, the self-cleavage came to 0.736.
For the variant GGCCGGCAUGGUCCCAGCCUCCUCGCUGGCGCCGGCUGGGCAGCAUUCCGAGGGGACCGUCUCCUCGGUAAUGGCGAAUGGGACCCA, the self-cleavage is 0.646.
For GGCCGGCAUGGUCACAGCCUCCUCGCUGGCGCCGGCUGGGCAACAUUCCGAGGGGACCGUCCCCUGGGUAAUGGCGAAUGGGACCCA, the self-cleavage was found to be 0.57.
In the case of GGCCGGAAUGGUUCCAGCCUCCUCGCUGGCGCCGGCUGGGCAACAUUCCGAGGGGACCGUCCCCUCGGUAAUGGCGAAUGGGACCCA, the self-cleavage came out at 0.0361.
With GGCCGGCAUCGUCCCGGCCUCCUCGCUGGCGCCGGCUGGGCAACAUUCCGAGGGGACCGUCCCCUCGGUAAUGGCGAAUGGGACCCA, the self-cleavage is 0.453.
Turning to GGCCGGCAUGGUCCCAGCCUCCUCGCUGGCGCCGGCUGGGCAACAUUCGGAGGGGACCGUCCCCUCGGUAAUGGCGAAUGGGGCCCA, the self-cleavage turned out to be 0.378.
Take GGCCUGCAUGGUCCCAGCCUCCUCGCUGGCGCCGGCUGGGCAACAUUCCGAGGGGACCGUCCCCUGGGUAAUGGCGAAUGGGACCCA: the self-cleavage turned out to be 0.554.
With GGCCGGCAUGGUCCCAGCCUCCUCGCUGGCGCCGGCUGGGCAACAUGCCGAGGGGACCGUCCCCUCGGUAAUGGCGAAUGGGAACCA, the self-cleavage came to 0.965.
For GGCCGGCAUGGUCCCAGCCUCCUGGCUGGCGCCGGCUGGGCAACAUUCCGAGGGGACCGUCCCCUCGGUAAUGGCGAAUGAGACCCA, the self-cleavage was determined as 0.0332.
With GGCCGGCAUGGUCCCAGCCUCCUCGCUGGCGCCGGCUGGGCAACAUUCCGAGGGGCCCGUCCCCUCGGUAAUGGCGAAUGGGACCCG, the self-cleavage worked out at 0.846.
In the case of GGCCGGCAGGGUCCCAGCCUCCUCGUUGGCGCCGGCUGGGCAACAUUCCGAGGGGACCGUCCCCUCGGUAAUGGCGAAUGGGACCCA, the self-cleavage was determined as 0.554.
On to GGCCGGCAUGGUCCCAGCCUCCUCGCUGGCGCCGGCUGGGCAACAUUCCGAGGGGACCGUCCCCUCGGCAAUGCCGAAUGGGACCCA, for which the self-cleavage was 0.0923.
As for GGCCGGCAUGGUCCUAGCCUCCUCGCUGACGCCGGCUGGGCAACAUUCCGAGGGGACCGUCCCCUCGGUAAUGGCGAAUGGGACCCA, the self-cleavage was 0.154.
Take GGCCGGCAUGGUCCCAGCCUCCUCGCUGGCGCCGGCUGGGCUACAUUCCGAGAGGACCGUCCCCUCGGUAAUGGCGAAUGGGACCCA: the self-cleavage is 0.875.
For GGCCGGCAUGGUCCCAGCCUCAUCGCUGGCGCCGGCUGGGCAACAUUCCGAGGGGGCCGUCCCCUCGGUAAUGGCGAAUGGGACCCA, the self-cleavage was found to be 0.415.
As for GGCCUGCAUGGUCCCAGCCUCCUCGCUGGCGCCGGCUGGGCAACAUUCCGAGGGGACCGUCCCCACGGUAAUGGCGAAUGGGACCCA, the figure is 0.453.
Regarding GGCCGGCAUGGUCCCAGCCUCCCCGCUGCCGCCGGCUGGGCAACAUUCCGAGGGGACCGUCCCCUCGGUAAUGGCGAAUGGGACCCA, the self-cleavage amounted to 0.0475.
With GGCCGGCAUGGACCCAGCCUCCUCGCUGGCGCCAGCUGGGCAACAUUCCGAGGGGACCGUCCCCUCGGUAAUGGCGAAUGGGACCCA, the self-cleavage was determined as 0.0378.
In the case of GGCCGGCAUGGUCCCAGCCUCCUCGCUGGCGCCGGCUGGGCAACAUUCCGAGGGGACAGUCCCUUCGGUAAUGGCGAAUGGGACCCA it was 1.15; in that of GGCCGGCAUGGUCCCAGCCUCCUCGCUGGCGCCGUCUGGGCGACAUUCCGAGGGGACCGUCCCCUCGGUAAUGGCGAAUGGGACCCA, 0.17.
As for GGCCGGCAUGGUCCCAGCCUCCUCGCUGGCGCCGGCUUGGCAACAUUCCGAGGGGACCGUCCCCUCGGUAAUGGCGUAUGGGACCCA, the self-cleavage was 0.0845.
On to GGCCGGCAUGGUCCCAGCCUCCUCGCUGGCGCCGGCUGGACAACAUUCCAAGGGGACCGUCCCCUCGGUAAUGGCGAAUGGGACCCA, for which the self-cleavage came to 0.884.
For GGCCGGCAUGGUCCCAGCCUCCUCGCUGGCGCCGGCUGAGCAACAUUCCGAGGGGACCGUCCCCUCGGUAUUGGCGAAUGGGACCCA, the self-cleavage came to 0.383.
Regarding GGCCGGCACGGUCCCAGCCUCCUCGCUGGCGCCGGCUGGGCAACAUUCCGAGGGGAUCGUCCCCUCGGUAAUGGCGAAUGGGACCCA, the self-cleavage came to 0.95.
Regarding GGCCGGCAUGGUCCCAGCCUCCUCGCUAGCGCCGGCUGGGCAACAUUCCGAGGGGUCCGUCCCCUCGGUAAUGGCGAAUGGGACCCA, the self-cleavage turned out to be 0.111.
In the case of GGCCGGCUUGGUCCCAGCCUCCUCGCUGGCGCCGGCUGGGCAACAUUCCGAGGGGACCGUCCCCUCGGUAAUGGCGAAUGGGAGCCA it was 0.462.
As for GGCCGGCAUGGUCCCAGUCUCCUCGCUGGCGCCGGCUGGGCAACAUGCCGAGGGGACCGUCCCCUCGGUAAUGGCGAAUGGGACCCA, the self-cleavage came to 0.608.
For GGCCGGCAUGUUCCCAGCCUCCUCGCUGGCGGCGGCUGGGCAACAUUCCGAGGGGACCGUCCCCUCGGUAAUGGCGAAUGGGACCCA, the self-cleavage turned out to be 0.0767.
